The text below walks through data of US20140050719A1 (GlaxoSmithKline, published 2014).

This assay deals with T1, human Aβ peptide (1-40) biotinylated at the C terminus (human, UniProt P05067 672-711, biotinylated at the C terminus).
T1 construct: domain: beta-amyloid peptide (1-40); the peptide starts at the BACE-1 cleavage site (DAEFRHD...); also called beta-amyloid 1-40 peptide (biotinylated at the C-terminus); streptavidin-captured beta-amyloid (1-40)
The assay can be described thus: Biacore SPR, similar to Method A(i); streptavidin-captured beta-amyloid (1-40), Fab in solution.

T1 sequence (P05067 672-711 limits assumed): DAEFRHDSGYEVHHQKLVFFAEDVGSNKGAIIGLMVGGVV

B1: Fab fragments of H2L1, obtained by papain digestion (Fab, V domains shown)
VH: EVQLVESGGGLVQPGGSLRLSCAVSGFTFSDNGMAWVRQAPGKGLEWVSFISNLAYSIDYADTVTGRFTISRDNAKNSLYLQMNSLRAEDTAVYYCVSGTWFAYWGQGTLVTVSS
VL: DIVMTQSPLSLPVTPGEPASISCRVSQSLLHSNGYTYLHWYLQKPGQSPQLLIYKVSNRFSGVPDRFSGSGSGTDFTLKISRVEAEDVGVYYCSQTRHVPYTFGGGTKVEIKR
notes: also called H2L1 Fab
As to B1, the equilibrium dissociation constant (Kd) is about 2.4 nM.
